# Source: article PMC11975290, “Two redox-responsive LysR-type transcription factors control the oxidative stress response of Agrobacterium tumefaciens” (Nucleic Acids Research, 2025)
# T1: His-ArgP (Escherichia coli (ASKA collection)) (UniProt P0A8S1)
# T1 sequence: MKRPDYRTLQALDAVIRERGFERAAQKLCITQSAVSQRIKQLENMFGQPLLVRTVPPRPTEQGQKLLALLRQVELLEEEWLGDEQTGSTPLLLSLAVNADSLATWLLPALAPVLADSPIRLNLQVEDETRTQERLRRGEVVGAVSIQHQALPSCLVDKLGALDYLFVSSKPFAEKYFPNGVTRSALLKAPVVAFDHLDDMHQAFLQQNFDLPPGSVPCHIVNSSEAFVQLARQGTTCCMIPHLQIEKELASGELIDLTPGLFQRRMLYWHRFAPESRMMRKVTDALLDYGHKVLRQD
# T2: LsrB-His (Agrobacterium tumefaciens) (UniProt A9CI74)
# T2 sequence: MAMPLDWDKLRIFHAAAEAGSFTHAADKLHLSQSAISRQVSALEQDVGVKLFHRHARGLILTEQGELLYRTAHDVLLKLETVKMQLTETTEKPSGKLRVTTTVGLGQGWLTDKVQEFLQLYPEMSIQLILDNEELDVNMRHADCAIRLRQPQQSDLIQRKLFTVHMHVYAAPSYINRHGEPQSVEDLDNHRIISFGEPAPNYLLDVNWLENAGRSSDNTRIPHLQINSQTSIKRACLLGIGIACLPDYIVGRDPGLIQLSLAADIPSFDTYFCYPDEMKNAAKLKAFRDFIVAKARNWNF
# B1: LsrB (LysR-type symbiosis regulator B) of Agrobacterium tumefaciens (natural protein)
# chain: T2 sequence
# notes: LsrB, LysR-type transcriptional regulator of Agrobacterium tumefaciens (atu2186); also called Atu2186; LsrB^His; source: E. coli BL21 (DE3), purified (His-tagged or Strep-tagged; Strep-Tactin resin for the Strep-tagged form)
# How the values were obtained:
# [1] = target: T1, His-ArgP (Escherichia coli (ASKA collection)); experiment: EMSA; settings: Radioactive EMSA: 20 min at 30 C, 6% polyacrylamide gel, buffer by reference (Müller et al.); ArgP agarose EMSA: 10 mM Tris-HCl pH 8.5, 10 mM MgCl2, 100 mM …
# [2] = target: T2, LsrB-His (Agrobacterium tumefaciens); experiment: EMSA; settings: Radioactive EMSA: 20 min at 30 C, 6% polyacrylamide gel, buffer by reference (Müller et al.); ArgP agarose EMSA: 10 mM Tris-HCl pH 8.5, 10 mM MgCl2, 100 mM …
# [3] = target: the molecule itself; experiment: cryo-EM structure; single-particle cryo-EM of purified LsrB (1.2 mg/ml), without DNA; DNA-binding domain excluded from the analysis; AlphaFold 3 model of the SBD dimer rigid-body fitted into the 3.9 Å map
molecule,measurement,setting,value
CGCTTCTGTGGTTTTAGTTTCGGAAACCATACAAAAATGCTATCCATCTTAAAAATGAGGCGCGATTGTAGCAGACGATTGGCAATCCTTCCGGCAGAAATACACGGTTATAAGACACCTTCATGATCGCCCAGGGATTATAAGTAAAGCAGCCAATCTCTTTTCTGGCGAATGCATGCTGAAGGCGCTGCGTCACGAAATCGACACAGCACCAGCATGTTCTTGTACAGCAACTTAACGCGGCACATTTGCGGGATCGCAATAGTCCAGAAAGCG (double strand) [lysP promoter 276 bp],binding,[1],binds
GCGGCTAAACGTCTTTTCGCTGGGGATGGCGGAGAAGCCGACAATCCACCTTAGGTTTTGGAGAACACGAAAGATGAAATTTAATCGCAGACATATCGCACTGGCCGCTTTGGTCTCGACGGGCCTGGTCACGCAGGCTTCTGCCGCTGATGATG (double strand) [ampC promoter 155 bp],binding,[2],no binding
B1,stoichiometry N,[3],2
